Experiment: soluble fraction after stress (log2 fold change); higher = more stays soluble; pooled small domains, quantitative proteomics
Settings: stress: pH 4
How it was run: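 High-throughput quantitative proteomics was run on pooled custom libraries of small protein domains following pH 4 stress. Fold changes are on a log2 scale; higher values mean more of a domain remained soluble. The fold change in soluble amount is taken as a measure of aggregation propensity.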

| Sequence | soluble fraction (log2) |
| --- | --- |
| HMPRFDINFKVGEVVTIKGGSFDGQQGEISEIDHEHGKIKVMLEVLGRLTPVEVEHTEIEKI | -0.623 |
| HMPRKLDDQLQEQIRYLKSNYPRMSAAGIFRQLQDNGSIKHGDVSESTINRYVNLLSIEMKTTT | 0.149 |
| HMPRNMTFAIRGEYITLDALLKAVGAADSGAQAKHRIAEGEVTVDGVVETRKTRKLRGGETVVVDDLAVVL | -1.4 |
| HMPRQREVPDVSGWTEQHAKVYLEALGYRVKVIYLEVSSFDKGLVQETSPAKGSKVEEGDTIDLRVSNQE | 0.299 |
| HMPRSLGADLRAIRKGRRLTLTDMAEALDRSVGWVSQVERDISTPSISDLRRMAEILDVPVSLLFG | -1.59 |
| HMPSARELLATNIVRLRKEKGWSQEDLALEAGLHRTFVAHVERHARNISLDNIERLANALQVNVHILLL | -1.26 |
| HMPSEDELAERLRGAIRQGDILNEGRMPPERALAEHFGVSRARLRLALGLLQEDGTIYRRHGQGTFAT | -0.0169 |
| HMPSIGKNILYYRKKRNMTIDELSKKSGVSKSMLSQVEQEKTNPTVVTVWKIARSLDVSINQLLQT | 0.136 |
| HMPSKKHARWIELEARKFMADNEDAVSDLHELRTRAANFAALKTSTLPVDQHRAIVAGFVARVNELGRRI | -0.19 |
| HMPSLSPDETVVVDALRQQNDMQINMISVKTNLPIARLSAILFEMELKGVLKPLAGGVYHLL | -0.0639 |
| HMPSPEMLKETEKRKAEEIYRSQINLFIDDYHRLKGQYPLLEDIIDNKKDSIPIEILREISISILKNYFE | -0.926 |
| HMPSPEVELLEDLLSKTDEAEVEAAFHENQALVNDEFKAMLGSLIQELSKTQEADPEIIARIRFIQKLT | -1.27 |
| HMPSREDFAYDSIKEAILSGELLPNQKISLSDLANKLGISIIPVNSAVGRLVAEGLVRQDPHHSPYVV | -0.31 |
| HMPSRPIQVASFSKEDNAKRAAEALAKIGVTATPQKSEKAGKAVWGVVVTGDDAMLQKIKDAGFADAYFL | 0.22 |
| HMPSTKDGIKEFLSSGAMKGIGRKTASAIVSRFGIDTLKIIEQEPQRLTEVSGIGKKTAQRIAEAFGKH | 0.201 |
| HMPSTVRVPDVAETSLSEAKKTIEESGLEVGAIHKVNNDTVKKNHVIKTSPTIGSAKKEGSAIDIYVSKG | 0.201 |
| HMPSTVSVPDVAGSSLSEAKTTIKSSGLKVGTVHKVSSDTVESGYVIKTSPTAGSSKKEGSSIDIYVSKG | -0.026 |
| HMPTANFPAMAEALKKQYGPPTGEEETSWTHRLGGVFDIKIQSWNTPQGEMVLRSRGAAMDAGML | 0.283 |
| HMPTEPTARELEVTTLLAQGLSNREIAGALFISEHTVRNHLGHVFSKLGVSSRTQAVVRAGQLGWLR | -0.798 |
| HMPTKSDLLQWIKDRASKMGGAFTNSGAYALADAGVDGPRALSSEINKLLTYVNWERSVEADDVIRL | -0.296 |
| HMPTLTPFDVARIENAINPRLNLETAAKLKPWIAAGYTAQETADGTGFSPDTVKKYAAIFRK | 0.146 |
| HMPTQTEELRRRIVADVNAGEPGAKLGSERELAERYGTSRSSLRQVLAALQEAGLIDRVIGRSGGIFISH | 0.33 |
| HMPTSILEKILNSAAEQFTRYGFKTITMDDIARHAGVSKKTLYQHFETKLDIIVAAVTHFHTMKF | -1.65 |
| HMPTYEEAKTYLKAAFEHIVAAGRDVGELVEFAFAKSGDAVAPYLRRFLSDVHEGRITIQGLTESAKLAV | -0.463 |
| HMPVEQVWHIAEAGKTKGPFSRASMGRMSADGALTRDTLVWTAGQDGWKKAADVTALATLFT | -0.0499 |

| Sequence | soluble fraction (log2) |
| --- | --- |
| HMPVFYATNRQKTTIHNLKRKKGLDDDAYRATIYSFTHGRTDSSKYMYKYEAAELIQKWLDPE | -0.157 |
| HMPVGVPGVVYNTDSLNVRKGAGTNYDIVSKLKRGSVIEVLEQTAVDGTVWGRIAEGWVNMEYVSL | -0.363 |
| HMPVSDLQSALRNTLSKGDATDPAFRQRVYRAAMDALERATGSESDPQRRSEQKQRLIAVIRDMEASYRR | 0.101 |
| HMPVTKSARQSRIGELIAREPVRSQSELAARLADDGIVVSQGTLSKDLLELGAVRVRTSSGELAYALL | -0.258 |
| HMPWLIAVTVDGVNLPRFLRRAGEMGLLLTGVRIRGKHLSAFAREDDVPPLRMMAENGGWRFSVGN | -0.302 |
| HMPYEHQRAVGALIRRLREQQGWSQRALADWVHMDQSAVSRVETGQRSVTAEELGRFADALHVSTDALVR | 0.059 |
| HMPYFLKQSNTRSKGLYLQIYHSFYVPGKGSRNKSYKAIGYVSELIKNGIEDPITYAKNLVDELNNNSSTP | 0.226 |
| HMPYPSPADLARMDELIAWVKDEGRLPRDRSGQRSERSMARWLAARRREAAEGTLDPAYRDGLAQVPGWR | -0.304 |
| HMPYSAAVTFLDDAKQPMVNYNYRLIAENGIEVSGITDEFGKTQPIQTDQREKVDLYIADLPN | -0.37 |
| HMQAALEVQASAGVLAPVPPDQRQALLDTLAQDPRPGYQHEAGRVYGFPFGGFEVRFTVSDGLLTVLSAYK | -1.16 |
| HMQAATQVNIVGLFSNKAVVIINGGKPKTLSVGQTSEGVKLLAADSQTATLQIEGKTQQLGMGQAASVGG | 0.107 |
| HMQAESLTVVRSAELKADRFLDAATLQTLQTGQVVESLRTESGWVQVRIAGQQGWVRAMNVKGA | -0.569 |
| HMQAITVNNEGKIFLNTIPVTLEELSSKLESLKSSTPEFPVVIRGDSGSQYQGIMDVLNVVGRLGITQIGL | -1.08 |
| HMQAKDVEVPDYVGKSFVSIKENNPNDFKFEVKSEYDESKEMGVILDQEPKGGSMKVKSGSTITVTV | 0.0655 |
| HMQASPADLLSDRELEVFQLTGEWKTTRQIAQELHLSVKTIEYYREQIKRKLNLKSAAELTQHATAWVQRG | ≥ 0.43 |
| HMQDAVASEKIQLMSEALHARDTGDLLLAKEKVEKLIALAPNDKNIQALLLTINQSIEDKGL | -0.0958 |
| HMQDIDIVDLKRISELIYQKYNYDFRNYAMSSFKRRVQRIIELKKLTVDGLIKRLNDTPSFINEFLDELTV | -0.2 |
| HMQDNLKKYMDKLSQRDAELIVYKYLWNMSEKEISEMFHIKQEQVHVYVGRAKKRLFKIIKKEME | 0.111 |
| HMQDRDKNIEEGRQLVLHEMDRLDLVDEPLHDVARQLNMKAVEDMFAAVGAGDLRLGQIIHQLLKQADTN | -1.11 |
| HMQDSIYYAQYRINIRNMPSSEGMVISRASVGEALEVLDWQEQWSKVRKQSGVEGYVASRLLTK | -0.64 |
| HMQDTIDLVIQVNGKLRGQMNVPKDTDRATIEQLAINLENVQKIVAGNAIKKIIIVPGRLINIVVSKNL | -0.209 |
| HMQDTYQVKLLTNLNIRKSPNGTIVQKGGAKKGIIYTIVETSGTWGRLKSNAGWISVSDKYVTK | 0.102 |
| HMQDVKRYLVNSNQLNVRTGPGKEFEISESLNKGDAVTLLHKESNGWWEVITSTGQGYVYSSMLTKDPW | 0.0322 |
| HMQDVVERIKKYKQLFSITSEELSKRSGIPLGTLNKILSSSTKSIKTETLAAIAKGLDVSVSDLVGREK | -0.0189 |
| HMQEAGKWLKKLRTERKITLEQLSKKTGLSVGFLSQFERGLTSIAIDTLEKIAAVFNVTIDYFISP | 0.22 |

| Sequence | soluble fraction (log2) |
| --- | --- |
| HMQEEFVAPDVKDGAIVLHKAFGEGTVTKIDKAQKHIRVTFGVGEKTFIFPDAFKQGFLRMKG | 0.222 |
| HMQEERLTFDTLLGISGIGPRLALAVLSRFTPGSLAAAVDAGDTKAFSAVPGVGNRTASRIILELKGKL | -0.238 |
| HMQEGPGLVPDFRGQTMREVLRGGQSLGVRVAVDGTGLAVAQTPEPGSPLNKVSQVTVSFRPP | 0.22 |
| HMQEINLIGVTGNDLERSALVKLLDGEIIKLSVGDNLNGGRVVDISAVTLTYLKSGQSITLKLPK | 0.116 |
| HMQELGVISEGKYNIELNMVSWNDREPKYDIRSWAPDHSRMGKGISLTEEEMERLVELWNTRNE | -0.802 |
| HMQELKWERNYKLVQDYIKQYGVLPSKNTKYANVSIGRWLTNQHELVKEDNLAPERFEKIKELDT | 0.303 |
| HMQENDLGAVEKIVDDVLHDPKNAQAVADFKAGSEKVLGFLTGQVMKASRGKANPSVVQEVLRQKLKN | -0.0461 |
| HMQENVIIYPNPTKSVIYLSEKVEFILYNILGEIIFIGDNNKIDLNSFDNGVYIFESGNVRTQIIK | 0.204 |
| HMQEQIVQGIVKYFDAEKQFGFIAGDDGVDRFFNAKSIQGNAVKTGDRVRFLAISHIRGPRALKISA | -0.566 |
| HMQEQSSYVGQFGTAATTLRPSGTVELEDGTRIDVVTVGEFIEKGEPVQVVRKDGTWLVVEKRRSK | 0.122 |
| HMQERKYTVSFNTNGGSTINDQKITSGNVIISPGAPKRSGYTFVGWYYHGQPFDLNTKINQDYVLVAKWIK | 0.207 |
| HMQETILFGQQKAINNLSSDTGLSENDLDSYLKKRYKKPLYQLTQSEGADIINGFQDGSLSKNSILDYIKP | 0.22 |
| HMQEVKVRLKPDYLGEVLIKVISDKGELKAELFVSNSQVRSLLRAYAVEFQNQIRDQGYNFSEINVYR | -0.518 |
| HMQFAEIPNFSEMALQILRLQADGLSITKIAEALHMNPRTVKYHAQENYRKLQASNKSEALLAARNLNL | -0.418 |
| HMQFEIGDTVRVHVNIREGERERVQMFEGTVIAKRGSGVSETFTVRRVSYGVGVERVFPVNSPNV | 0.22 |
| HMQFETVQDAFNHYRNASLEEIESRAAEIKGIIESDPEADVRALNIEIEGLHQAKQNILEKQKTK | -0.064 |
| HMQFLGKVTVTHARQANLRAQPSMDAAIVGKVNPGEVYNVVSIPKTSWYEIQLQNGKTVFIAAGMVSFRM | 0.209 |
| HMQFSAVVLDMETRRQVAGVAVYINPKGVVKTDMRGRFVIDGAFNSVTLVRQGYESLTLERSEMTDSIWM | -1.07 |
| HMQGEASDAQLKAIFAIARKLGITDDFEVHRKASRLAGVPEPEVLPSLKSLTYAQASAVIKALQEELE | -0.0238 |
| HMQGENDVTIDPKKLTIGDLAKEISKIEDSEELNNILVAEKEGKGRKGAINAITERIENVSGGTG | 0.22 |
| HMQGLIGEQKAIQIALSRVPGAKPEHVRELKLDYDDGMQLYEGEIFYNFREYEFEINAVTGEVVGWEI | -0.839 |
| HMQHRSRALHLQEELVRRYYDQAIAPFMIFWEMKANVTLDQLKELRAVVSPSLNEHPYTKQLDEYIRLAE | -0.275 |
| HMQIEQVDYGTFMTMIDDKKIDKVEIKDNQILFIGKDDNKKYKTGIVQDPQLAERLHASGAVFSQDI | -0.158 |
| HMQIIGEQNQKDFIALFGAILRMRNLLLSFDEFKGNELISERDLQDYLGRYQDLRDEWRNKRRER | -0.654 |
| HMQINDSSVVQKAVNDVIDQNSKAVSDYWDGKEGAAKFLMGQVMKLTRGQANPDLANQLILTRLQQERV | 0.182 |

Source: the domain aggregation screens of Martell et al. (2025)
